Tests used:
[1] = target: ubiquitin aminomethylcoumarin (UniProt P0CG48)
[2] = target: GST-tagged ChlaDUB1_(130–401) (C345A) (Chlamydia trachomatis L2) (UniProt B0B9A0); assay: BLI
[3] = target: GST-tagged ChlaDUB2_(58–339) (C282A) (Chlamydia trachomatis L2) (UniProt B0B999); assay: BLI

Row | Substance | attenuation of Ub-AMC hydrolysis activity against wild type ChlaDUB2(58-339) [1] [%] | Kd [2] [µM] | Kd [3] [µM]
1 | ChlaDUB2_(58–339) W92A (from UniProt B0B999 58-339) (domain or fragment) | 50 |  | 
2 | Lys63-linked diubiquitin (from UniProt P0CG48 1-76) (complex) |  | 117 | 88.9

Source: article PMC7700883
